Assay results from IntAct's records for PubMed 17998537.

B1: CCR4-associated factor 4 (Saccharomyces cerevisiae), P36130 (parent)
chain: MGSGDTRGESSLVAKPIEIILNKLPHAILAQQQFQKYITSPIYRYLSKLLLFREVAWPESTKDTQKGQVGIFSFQNNYADSATTFRILAHLDEQRYPLPNGAAEKNLPSLFEGFKATVSIIQQRLLLDNVDGATNSDKEKYVQLPDINTGFVNKTYSRIDLTHLLEDVETNVENLSINKTLEMDELTRLDSMINELESRKLKILERVKHIDSKSTNLENDVTLIKDRINFIEEYNLEADREQSLRKQMEEERSSEASSFTQNEEAISSLCDVESKDTRLKDFYKMPHEKSHDKNRQIISETYSRNTTAFRMTIPHGEHGNSITALDFDTPWGTLCSSSYQDRIVKVWDLNHGIQVGELPGHLATVNCMQIDKKNYNMLITGSKDATLKLWDLNLSREIYLDHSPLKEKTEEIVTPCIHNFELHKDEITALSFDSEALVSGSRDKKIFHWDLTTGKCIQQLDLIFTPTHSDIKMPARSLNNGACLLGTEAPMIGALQCYNSALATGTKDGIVRLWDLRVGKPVRLLEGHTDGITSLKFDSEKLVTGSMDNSVRIWDLRTSSILDVIAYDLPVSSLDFDGKLITVGANEGGVNVFNMERDEHWMTPEPPHSLDGDELSRRIAIVKYKDGFLINGHNDGDINVWTL
partner: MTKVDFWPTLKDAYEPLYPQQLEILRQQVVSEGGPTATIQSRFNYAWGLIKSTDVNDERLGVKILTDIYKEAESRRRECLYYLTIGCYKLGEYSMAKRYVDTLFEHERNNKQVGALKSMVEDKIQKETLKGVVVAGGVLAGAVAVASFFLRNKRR
B2: Mitochondrial division protein 1 (Saccharomyces cerevisiae), P47025 (parent)
chain: MSVNDQITHIGKTLSTTASAFLNYQKSNSNTQDVLTNNGPYKNLLSNTVNNASSTSYFYKRTEHGRFVKNASNTFEDIYSKTRRGDVFRNKFTDNKTCFRMLTYISDDLLNEIPTKEGLKSDADGKLLTEGGENENLRKNASKKETSLFQGFKSYLPIAELAIENTERLNYDTNGTSGTVGAKDVMSKTNERDEIHTELPNFQDSFLIPPGVETKKISSSYSPSALKSFSQTLVNSLEFLNIQKNSTLSEIRDIEVEVENLRQKKEKLLGKIANIEQNQLLLEDNLKQIDDRLDFLEEYGLEVIEANSDENAEDDGMSERKALKNDAIRNEGVTTESISSEASNLPPRRRQQLRDDNSLNRLGAFYSKSKKRHRKSFPTFQQLYEPGTKIGSIMSTHDDFLTCLDFDAPFGTLCTAGYLDHTVKIWDLSKQNKIGELAGHLATINCMQINRDYGTLVTGGRDAALKLWNLNLAQQLYQETQNLTSPTNHIDSPCVHTFEAHTDEVTALSLDPSFLVSGSQDRTIRQWDLRSGKCLQTIDLSFANVLTTSTNVDLSKSTLLTQRNERPSIGALQSFDAALATGTKDGVVRLWDLRSGKVIRTLKGHTDAITSLKFDSACLVTGSYDRTVRIWDLRTGLLNKFHAYSAPVLSLDLFQENAAVVVADEPSVQIYDSEKDESWSCVEQGNETSVSTVKYKENYMVEGRENGDVNIWAV
partner: B1 partner
B3: Mitochondrial fission 1 protein (Saccharomyces cerevisiae), P40515 (parent)
chain: B1 partner
partner: B2 chain

Variants of: B1
Details: with fis1_yeast FIS1, P40515

Row | effect of a mutation on the interaction | Variant
1 | disrupting interaction strength | F114A
2 | disrupting interaction strength | L88A
3 | disrupting interaction strength | L110A

The next lines start with the variant.

Row | Variant | effect of a mutation on the interaction
4 | F85A;R86A | disrupting interaction strength
5 | F111A | disrupting interaction strength

Variants of: B2
Details: with fis1_yeast FIS1, P40515

Row | effect of a mutation on the interaction | Variant
6 | disrupting interaction | F99A;R100A
7 | disrupting interaction | F152A
8 | disrupting interaction | F149A
9 | disrupting interaction | L148A
10 | disrupting interaction | I105A

Variants of: B3
Details: with mdv1_yeast MDV1, P47025

Row | effect of a mutation on the interaction | Variant
11 | disrupting interaction | W47A
12 | disrupting interaction | I24A;L25A
13 | disrupting interaction | F43A;N44A
